The target of the assay is Dutch/Iowa CAA double mutant Aβ40 (UniProt P05067). In words: SPR, Aβ peptide immobilised, MBP as analyte.

For one substance, Kd results are on record in patent US20110294740A1.

pKd: −log10 of the molar value.

Chain of Dutch/Iowa CAA double mutant Aβ40 (P05067 672-711, change not shown): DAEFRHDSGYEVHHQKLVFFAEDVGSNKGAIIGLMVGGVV
Chain of myelin basic protein (purified MBP) (P02686 135-304 limits assumed): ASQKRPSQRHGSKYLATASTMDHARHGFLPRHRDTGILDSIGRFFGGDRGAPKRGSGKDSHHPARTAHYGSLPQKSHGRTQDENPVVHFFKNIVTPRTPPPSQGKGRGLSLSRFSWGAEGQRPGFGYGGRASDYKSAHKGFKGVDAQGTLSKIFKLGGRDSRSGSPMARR

“myelin basic protein (purified MBP) (from UniProt P02686 2-171)” showed a pKd of 7.77.
